These results are taken from US20180282393A1 (IMMATICS BIOTECHNOLOGIES, published 2018).

The target of the assay is T1, HLA-A*02:01 (human).
T1 construct: Captured on streptavidin plates and detected with anti-b2m; also called peptide-receptive MHC molecules; MHC class I
Nature of the assay: UV-ligand exchange, anti-b2m ELISA; peptide exchange yield grade (+ >=10%, ++ >=20%, +++ >=50, ++++ >=75%). From the text:
Candidate peptides for T cell based therapies according to the present invention were further tested for their MHC binding capacity (affinity). The individual peptide-MHC complexes were produced by UV-ligand exchange, where a UV-sensitive peptide is cleaved upon UV-irradiation, and exchanged with the peptide of interest as analyzed. Only peptide candidates that can effectively bind and stabilize the peptide-receptive MHC molecules prevent dissociation of the MHC complexes. To determine the yield of the exchange reaction, an ELISA was performed based on the detection of the light chain (β2m) of stabilized MHC complexes. The assay was performed as generally described in Rodenko et al. (Rodenko et al., 2006).
96 well MAXISorp plates (NUNC) were coated over night with 2 ug/ml streptavidin in PBS at room temperature, washed 4× and blocked for 1 h at 37° C. in 2% BSA containing blocking buffer. Refolded HLA-A*02:01/MLA-001 monomers served as standards, covering the range of 15-500 ng/ml. Peptide-MHC monomers of the UV-exchange reaction were diluted 100 fold in blocking buffer. Samples were incubated for 1 h at 37° C., washed four times, incubated with 2 ug/ml HRP conjugated anti-β2m for 1 h at 37° C., washed again and detected with TMB solution that is stopped with […]. Absorption was measured at 450 nm. Candidate peptides that show a high exchange yield (preferably higher than 50%, most preferred higher than 75%) are generally preferred for a generation and production of antibodies or fragments thereof, and/or T cell receptors or fragments thereof, as they show sufficient avidity to the MHC molecules and prevent dissociation of the MHC complexes.
As to NLMASQPQL, the peptide exchange yield is 50 to 75%.

SMHQMLDQTL returned a peptide exchange yield of 20 to 50%.

VLPKLYVKL gave a peptide exchange yield of 20 to 50%.

Molecule GLESEELEPEEL came in with a peptide exchange yield of 20 to 50%.

For the molecule LLRFSQDNA, the peptide exchange yield is 50 to 75%.

Molecule YTQPFSHYGQAL yielded a peptide exchange yield of 50 to 75%.

VLAEGGEGV: the peptide exchange yield lay within 50 to 75%.

Molecule KLFGHLTSA showed a peptide exchange yield of 20 to 50%.

On to FLLRFSQDNA, for which the peptide exchange yield was in the range of 20 to 50%.

The molecule ALYEYQPLQI yielded a peptide exchange yield of 20 to 50%.

As for KLNDTYVNV, the peptide exchange yield fell in the range of 50 to 75%.

GLTDVIRDV displayed a peptide exchange yield of no less than 75%.

IVREFLTAL showed a peptide exchange yield of 50 to 75%.

For IAAIRGFLV, the peptide exchange yield is 50 to 75%.

As to GLAPFLLNAV, the peptide exchange yield was in the range of 50 to 75%.

The molecule FLLDQVQLGL gave a peptide exchange yield of 50 to 75%.

On to VVVTGLTLV, for which the peptide exchange yield lay in the range of 20 to 50%.

Molecule LLANGVYAA showed a peptide exchange yield of 10 to 20%.

For the molecule ALWLPTDSATV, the peptide exchange yield lay within 50 to 75%.

KVVGKDYLL came in with a peptide exchange yield of 10 to 20%.

GAIDLLHNV had a peptide exchange yield of 20 to 50%.

The molecule SIFEGLLSGV yielded a peptide exchange yield of 20 to 50%.

With YTAQIGADIAL, the peptide exchange yield lay in the range of 50 to 75%.

Molecule TASAITPSV displayed a peptide exchange yield of 50 to 75%.

With KLSDSATYL, the peptide exchange yield is 50 to 75%.

The molecule VLASGFLTV showed a peptide exchange yield of no less than 75%.

GLMKDIVGA displayed a peptide exchange yield of 50 to 75%.

In turn, LILESIPVV returned a peptide exchange yield of 20 to 50%.

SLDGFTIQV returned a peptide exchange yield of 20 to 50%.

Take YVVGGFLYQRL: the peptide exchange yield fell in the range of 50 to 75%.

ALVEVTEHV displayed a peptide exchange yield of 20 to 50%.

Take YQDLLNVKM: the peptide exchange yield lay within 50 to 75%.

MLAEKLLQA showed a peptide exchange yield of 10 to 20%.

As for STYGGGLSV, the peptide exchange yield is 50 to 75%.

Consider TQTAVITRI, for which the peptide exchange yield lay within 10 to 20%.

LLFAGTMTV registered a peptide exchange yield of 20 to 50%.

GLAFSLYQA: the peptide exchange yield lay in the range of 20 to 50%.

As to RLPNAGTQV, the peptide exchange yield is no less than 75%.

For the molecule ATGNDRKEAAENSL, the peptide exchange yield fell in the range of 50 to 75%.

In the case of SLSPVILGV, the peptide exchange yield is no less than 75%.

Turning to YMLDIFHEV, the peptide exchange yield was in the range of 20 to 50%.

Molecule LLSGDLIFL gave a peptide exchange yield of 50 to 75%.

Turning to LLPPPPPPA, the peptide exchange yield fell in the range of 50 to 75%.

With GLASRILDA, the peptide exchange yield was in the range of 50 to 75%.

As for NLREGDQLL, the peptide exchange yield lay within 50 to 75%.

The molecule MISRTPEV gave a peptide exchange yield of 20 to 50%.

LLDEKVQSV registered a peptide exchange yield of 50 to 75%.

Molecule MLTELEKAL had a peptide exchange yield of 20 to 50%.

VVMEELLKV came in with a peptide exchange yield of 20 to 50%.

In the case of LAYTLGVKQL, the peptide exchange yield lay within 50 to 75%.

For the molecule VAIGGVDGNVRL, the peptide exchange yield fell in the range of 20 to 50%.

As for GLDVTSLRPFDL, the peptide exchange yield was in the range of 50 to 75%.

The molecule SLLDTLREV registered a peptide exchange yield of 50 to 75%.

As to SLNGNQVTV, the peptide exchange yield fell in the range of 10 to 20%.

In turn, GLAPNTPGKA gave a peptide exchange yield of 50 to 75%.

SLDGTELQL had a peptide exchange yield of 50 to 75%.

As for SLVSEQLEPA, the peptide exchange yield lay in the range of 50 to 75%.

As for TQTTHELTI, the peptide exchange yield was 50 to 75%.

Consider SLYNLGGSKRISI, for which the peptide exchange yield was no less than 75%.

LVRDTQSGSL returned a peptide exchange yield of 20 to 50%.
